{"source": "IntAct's records for PubMed 10521435", "parents": {"B1": {"name": "Chaperone protein DnaJ (Escherichia coli (strain K12)), P08622 (parent)", "chain": "MAKQDYYEILGVSKTAEEREIRKAYKRLAMKYHPDRNQGDKEAEAKFKEIKEAYEVLTDSQKRAAYDQYGHAAFEQGGMGGGGFGGGADFSDIFGDVFGDIFGGGRGRQRAARGADLRYNMELTLEEAVRGVTKEIRIPTLEECDVCHGSGAKPGTQPQTCPTCHGSGQVQMRQGFFAVQQTCPHCQGRGTLIKDPCNKCHGHGRVERSKTLSVKIPAGVDTGDRIRLAGEGEAGEHGAPAGDLYVQVQVKQHPIFEREGNNLYCEVPINFAMAALGGEIEVPTLDGRVKLKVPGETQTGKLFRMRGKGVKSVRGGAQGDLLCRVVVETPVGLNERQKQLLQELQESFGGPTGEHNSPRSKSFFDGVKKFFDDLTR"}}}
{"variants_of": "B1", "details": "with dnak_ecoli dnaK"}
{"variant": "K62A;R63A", "effect of a mutation on the interaction": "decreasing interaction"}
{"variant": "R63A", "effect of a mutation on the interaction": "decreasing interaction"}
{"variant": "K62A", "effect of a mutation on the interaction": "decreasing interaction"}
